Source: US8273705B2, “Conversion of apoptotic proteins” (The Burnham Institute, priority 2002, dated 2012)

Key:
[1] = test system: LNCaP cells; experiment: Colocalization of transfected GFP-TR3/ΔDBD and Bcl-2 in LNCaP cells; assay type: cell-based; settings: cotransfected with Bcl-2, 20 h
Method: Next, the interaction of transfected TR3 and Bcl-2 was analyzed.

[2] = test system: 293T cells; experiment: Cytochrome c release in 293T cells (confocal microscopy); assay type: cell-based, human
Method: Subcellular localization assays—Cells were seeded onto cover-slips in 6-well plates overnight, then transiently transfected with GFP-fusion expression plasmids. After 16 hours, cells were washed with PBS and fixed in 4% paraformaldehyde. For mitochondrial staining, cells were then incubated with anti-Hsp60 goat IgG (Santa Cruz, USA), followed by anti-goat IgG conjugated with Cy3 (Sigma). For cyt c staining, cells were incubated with monoclonal anti-cyt c IgG (PharMingen), followed by anti-mouse IgG conjugated with Cy5 (Amersham). Fluorescent images were collected and analyzed using a MRC-1024 MP laser-scanning confocal microscope (Bio-Rad). Subcellular fractionation assays were performed as described (Li, et al. 2000 Science 289:1159-1164). Briefly, cells (1×10^7 cells) suspended in 0.5 ml hypotonic buffer (5 mM Tris-HCl, pH 7.4, 5 mM KCl, 1.5 mM MgCl2, 0.1 mM EGTA, pH 8.0, and 1 mM DTT) were homogenized and cell extracts were centrifuged at 500×g for 5 min. The resulting supernatant was centrifuged at 10,000×g for 30 min at 4° C. to obtain the HM fraction. HM fraction was resuspended in 100 μl lysis buffer (10 mM Tris, pH 7.4, 150 mM NaCl, 1% Triton X-100, 5 mM EDTA, pH 8.0) for immunoblotting analysis.
The involvement of TR3/Bcl-2 interaction in TR3-induced cytochrome c release was also studied. […] Nor did transient expression of Bcl-2 alone.

B1: TR3/ΔDBD: TR3 mutant with the DNA binding domain removed; used as GFP fusion (protein)
chain: MPCIQAQYGTPAPSPGPRDHLASDPLTPEFIKPTMDLASPEAAPAAPTALPSFSTFMDGYTGEFDTFLYQLPGTVQPCSSASSSASSTSSSSATSPASASFKFEDFQVYGCYPGPLSGPVDEALSSSGSDYYGSPCSAPSPSTPSFQPPQLSPWDGSFGHFSPSQTYLVLHRLQCARGFGDWIDSILAFSRSLHSLLVDVPAFACLSALVLITDRHGLQEPRRVEELQNRIASCLKEHVAAVAGEPQPASCLSRLLGKLPELRTLCTQGLQRIFYLKLEDLVPPPPIIDKIFMDTLPF
modifications: left off: large carriers; small tags and cut ends
notes: used as GFP fusion
transfected cells exhibiting colocalization with Bcl-2 [1]: Approximately 30%
cytochrome c release ([2]; absence of Bcl-2 cotransfection): did not cause any release of cytochrome c
cytochrome c release ([2]; co-expression with Bcl-2/Y108K): did not induce cyt c release
cytochrome c release ([2]; co-transfection with Bcl-2/ΔTM): did not occur
TR3/ΔDBD and Bcl-2 colocalized cells displaying diffuse cyt c staining ([2]; cotransfected with Bcl-2): Approximately 75%
cytochrome c release ([2]; cotransfection with Bcl-2): significant release of cytochrome c
